Reference: a protein production outcome set (Wang et al. 2014)

Experiment: label from the status in PepcDB records

Row | Sequence | protein production
1 | MAFNHLPAGVHDALGPLSVMPVTHSLPMAKNHRPDRSSSDTASSPSPGTVLDRLASGPSRASRITHTEHLPPREGRHAVWPDRIRSEVIAAVQAAGIEHPWAHQARAAEHALDGESVVVATGTASGKSLAYLVPALSALLDGSEAPNGRGATALYLAPTKALAADQCRSVKELSQPLGTAVRPAVYDGDTPVEEREWVRQYANYVLTNPDMLHRGILPAHPRWSSFLRALRYVVIDECHTYRGVFGSHVAQVLRRLRRLCARYGASPVFLLASATAAEPSVAASRLTGLRVVEVADDASPRGELVFALWEPPLTELHGEKGAPVRRTATAETADLLTDLTLQGVRSVAFVRSRRGAELIAVIAQERLAEIDRSLARRVAAYRGGYLPEERRALERALHSGELLGLAATTALELGVDVSGLDAVVIAGYPGTRASLWQQAGRAGRSGQGALAILVARDDPLDTFLVHHPEALFDQPVESTVLDPDNPYVLAPHLCAAAEELPLVEEDLALFGPSTADLLPQLEAAKLLRRRTKAWHWTRRERAADLTDIRGEGGRPVQIVEAGTGRLLGTVDAGAAHTTVHEGAVHLHQGRTYLVRELDLEDSVALVEEANPSYSTVARDTTAISVLETDVEVPWGEGRLCYGSVEVTNQVVSFLRRRLITGEVLGETKLDLPPRTLRTRAVWWTVTEDQLDAARITPEILGGALHAAEHASIGMLPLFATCDRWDIGGVSVPLHPDTLLPTVFVYDGHPGGAGFAERAFHTARDWLTATRQAIASCECDAGCPSCIQSPKCGNGNDPLHKRGAVRLLSVLLRGAAEQEKAGLPKEPARAAESSAD | failed
2 | ESILANLSAGVIAFSGDWHIRAANTSASRILGVDFSQLAEHRFPEWGGVMPAVASLVETVMQHADSDVESDWQTQLGYDTAQGERTLLVRGARLPEHSSDGYVLVFNDITE | failed
3 | MIAMVNDGGLALDRPTAAAIVGLFAGSMYLMTVFGGWVADNWLGQARAIWYGSIIIALGHLSIALTSVFDQSFFYLGLVLIVLGTGLFKTCISVIVGTLYKANDARRDAGFSIFYMGINMGSFIAPLITGLLAKDHGWHLGFGIGGIGMLIALLIFRFMAMPQLQTFNELRQEANSCSKPVVENKNAPKIVFSFLFAVAVVIALTFLGIIHINPVAVATYLTVGISIGIIAYFAYLLLFLNLEQHEKFKIIICFVLLAASALFWSAFEQKPTTFTLFAQDYTDRIVFGFEIPTVWFESINALFIIIFAPVAAWLWAKLGKANKDPSYISKFIIALLFAAGGFLLMSLASHFAIHGGVVSPFWLVGTLFLLTIGELCLSPIGLSTMTKLAPDVIRSQIMGLWFTGTALGNLMAGLIGGQVSADGINHLPSLFMRCVLALVIGAIVLFLLKKPMNKLMDKSTNKVQPDLETI | failed
4 | MLAFNLLRSAHMLNPALQVLAKDGSIADNTYQPIAEDGVIPAGDVVMTTAQLDQLTAIQGKKALYITVNDSPETHQFPLDQLDAIFIEFAGFNDGRGYSFAALLRRQGYQGELRAVGDIFKDVLNYLKRSGFDTFVIKEGKDIQEAAAGLNDFRQPYQASTAVPQADYQTGA | failed
5 | MSYGLIIVLMIILGIGLWHTKKYHRAVVNQVAHVWITKNAFEHTALGMAIVSPDCRFLKVNRAYGEITGYTRPELLKMAVKELTHPEDQEKDTPYLQEVFAGNIHSFTTVKRYIHKNGSTIWVRSTISAVRTERGNLKYFVAQIQDMTIAKNAEDELRKSRDNAEVLARTDYLTKTLNRRAFIERLQEELERTKRTQEGFAMILVDIDYFKKVNDQFGHLAGDYVLQKFADCLSNNVRPYDFIGRYGGEEFIICLPDTDVEQAALVAERMRESVEALEVDYLHAQIKVTGSFGVAVYDSHSSDTLDELIEKADGAMYVAKNHKNTVYQWVS | failed
6 | MKFLTTNFLKCSVKACDTSNDNFPLQYDGSKCQLVQDESIEFNPEFLLNIVDRVDWPAVLTVAAELGNNALPPTKPSFPSSIQELTDDDMAILNDLHTLLLQTSIAEGEMKCRNCGHIYYIKNGIPNLLLPPHLV | failed
7 | MSLHGKLIQFHKFGNPKDVLQVEYKNIEPLKDNEVFVRMLVRPINPSDLIPITGAYAHRIPLPNIPGYEGVGIVENVGAFVSRELIGKRVLPLRGEGTWQEYVKTSADFVVPIPDSIDDFTAAQMYINPLTAWVTCTETLNLQRNDVLLVNACGSAIGHLFAQLSQILNFRLIAVTRNNKHTEELLRLGAAYVIDTSTAPLYETVMELTNGIGADAAIDSIGGPDGNELAFSLRPNGHFLTIGLLSGIQVNWAEIVTKAKVHANIFHLRHWNDEVSPYKWQETFRHLIRLVENEQLRFMKVHSTYELADVKAAVDVVQSAEKTKGKVFLTSYEGHHHHHH | not failed
8 | MVQAHGGRSRAQPLTLSLGAAMTQPPPEKTPAKKHVRLQERRGSNVALMLDVRSLGAVEPICSVNTPREVTLHFLRTAGHPLTRWALQRQPPSPKQLEEEFLKIPSNFVSPEDLDIPGHASKDRYKTILPNPQSRVCLGRAQSQEDGDYINANYIRGYDGKEKVYIATQGPMPNTVSDFWEMVWQEEVSLIVMLTQLREGKEKCVHYWPTEEETYGPFQIRIQDMKECPEYTVRQLTIQYQEERRSVKHILFSAWPDHQTPESAGPLLRLVAEVEESPETAAHPGPIVVHCSAGIGRTGCFIATRIGCQQLKARGEVDILGIVCQLRLDRGGMIQTAEQYQFLHHTLALYAGQLPEEPSP | failed
9 | MIIGIDVGGTNTDAAIVSDEIKTIKLPNEAGIGGILKEISKEANLIEEKVVVSTSWPLNLIISKFSESRTLSLVIPGPGLNYSEYGEVLKGYVNHRGDVVEDIDEYEIAAIFRENSYDNVAISSKFSVRNGSLEDRVAEIVRNYV | failed
10 | MALHNDGFINRQFVFGDFVLQFDGVLCHQEQQISVPPKELAVLTALLEAAGELVSKDALLDKVWPDGDVNEESLTRCIYALRRILLEDKSNRYIDTVYGKGYRFSRPVAVVSRPTASAQKCTMAILPFRTDGQLDSLELHAALVQCLSRYSPFGLVVMPATITRNCGDIADIIAMIDQLRPDYYLAGQVQQQGDSWLLRVELVRADGHQLVHHESIEIGPGEHIAALQTRLASLLPQRIPGLRWHHGNGSQLDSLDMAITYLNGRHELQQHTPSSLKRALALFLQCTSSQPGNALPYCSLAECYLALAQLGLFDQERALDGAQQAVDRAVALDAANPQALGLLALLSSLRGQQTIAEALFEQARMLAPDSIDIHYYHAWHLFLSDRIPLAQRSLDACLERDPSRIAASMLQLWLTYCEHRLDEAVALGKRQLCQYGQDHPVLQSMLGLMLAIQGQHAQAEELAAAVKASGEEAGLLAVNGCYIAHCRMGDAARPLLQDFLSRVDCRQVRSGLLPLILALHGRAGALHLLGQLESDRYLWLRASRQDPRLAGLFHPHLSEAA | failed
11 | MVQAQTRDQIVAAADELFYRQGFAQTSFVDISAAVGISRGNFYYHFKTKDEILAEVIRLRLARTAQMLADWQGTGDSPRARIASFIDLMIMNRAKITRYGCPVGSLCTELSKLDHAAQGQANGLFTLFRDWLQRQFAEAGCTTEAPALAMHLLARSQGAATLAQSFHDEGFLRSEVADMHRWLDNTLPMTT | not failed
12 | MSTETAEKPGETTPESHVFEADVARLLHMMVHSVYSDKDVFLRELVSNAADACEKLRYEAITTPGLLTSDPDPRIQLRLDADNRQLILEDNGIGMSRAELIEALGTIARSGTRAFMERIEASKADAAKTGEDAQLIGQFGVGFYSCFMVADKVDVVTRRAGETQAWIWSSDGKGSYSISEIDAESAPARGTRITLHLMEDAKDYATRARVERIVKQQSGHVPVAITLVEKPGDEPTRITEGTALWTRPKSEISSEDYADFYRGIAGQYDEPALTVHFRAEGRHEYTALAFVPGTPPFDLFDPDRKGRIKLYVKRVFITDDAELLPRYLRFVRGLVDTADLPLNVSREMIQESPILSAIRKGVTNRILTSVEKLAQNEPETYKTLWENFGAVLKEGLYEDFERRSQLLGLTRFRTTTSGDDQRSLADYLKDLKPEQDSIYYLAGSNIEQLRASPQLEGFRARGIEVLLLSDQIDSFWVMNAPEFEGKTFKSVSQGAADLAKFAKADAGADSDQDSNDQAKADIAGFLALAKEQLKDQVADVRASDRLTESPVCLVAPESGYDRQLEKILAGAGQLASTSKPVLELNADHVLVKAMAGAQHTPALQNDAIHLLYDQARILDGEKPADARAFAERMGRLLEKALRA | failed
13 | MRKKGNKLIEFVSKIMALVMAVTLLSSLPVQNVLANDSKETKGEEYEIYPIPQSIKYDNGTVTLGTDANVVFEEGIDEATKNRLLEVLSIKGINYEESNEIKEDKTNFLIGINNSEGVVDKYFTDNNLANDSHFENHDAHVVSVKGNVIAVLGKNTDSAFYGITSLKAIFNQLEGNELKELLIEDYSDGQWRGFIEGYYGIPWSNENRKDLMKFGGDFKMNSYIFAPKDDQYHSLKWREPYPAEKLAEIKEMVDVGIATKNKFIWTIHPFLKDGMNFGSEESYKADLEKIIAKFEQLYSVGVRQFGVLADDAEGEANNQVKLMEDLEKWRLQKGDVYEFIFVPKVYTKESAGGDVNNEYLKTIGTMPETIDIMWTGDVILGYVTQETFEFFEEAVGRQAFMWLNWPVNDINNKRLLMGKGEMLDPTVTNFKGIVTNPMQEAQASKVALFAIADYGWNRADFDMDKSWKDSFKYIEPDASEELYTFAKHMSDPAPNWHGLSLEESEELRPVIEEFTRKLWEKESVLDYSKVILDEYQEILDATNNFATKSKNELLKSEIKGWVDSLRDLAESTIAYINSAVAFEKGNYEEAMKYYVLGEDEYTASRSHRTPVINGQSRPEPGTRHLIPFIKDLSKIIGDNIDQVINPDTTKLTLRPYTNMSPLYWGHVQNIADGDNTRYSCMWIRNSAKEGDYVAVELNEVTKVNSITFEQGQDEGDAFNYGKFQYSMDGENWIDVDGVDYGPKMHKIVVEGLDITAKYLRFIPTKEILNNWIAVREFSVNKKDENNMKVNAYTNVEALAKNEVSISEEKATLSDLNDVTLSKGEYVGIKLNKLREVTNIVSDFTNNDNLTLETSINGVEWVEAKTLSETINARYVRIINNTEKDVTFNLNKLEAEYSNNDVNFDIRPTAEAKFEPKNLIDGKLNTAFKPLESAPKSGQLTYRISDKTDIKKFTIVQNPNTISNAIVSVRNENGWKEVGSLGKSFNEFNTEDFENVFEIKVEWDGFAPTIYEIGLSTIKEEVQVDKSKLEEAIKEVEKLKEEDYTKDSWSNLIEKLNLAKEVLSKEDATQDEVDNAIKALNEAISGLVKKDETEGPVDPEKPVDPENPDNTEKPENPEGTDKPQTPDKPEGNLPNTGGASSSIFLQLGVVMMASGAFVLKRKKR | failed
14 | MIFRTFIVVLCLIPCFSYGSEAYLNAAEKQFESLLELLPEDEKREWKHRDFEEVMDYSNKLDELKKTAEYIRNQSDSSDVDGILAFSFLADAIQYELDLKTSLVNDLGLHLYRSYEINNVNPVRKAIEAELVALQNASGALQLQSKLTKYFKLQREIAELSKNPPTKMTLEYRPQDNAWDSDPELVKKYVLFDWLSALSKLKEKLYELQKIKDSFASFNYLRLKDPIAFVSLGAQLAILLVAVAGYLISYTEKPSIKVVASLVAASMLLSVFLVFVSSSTIFNLIVQASIPSLFIAYWVYRNSHNKKVQPTADGRG | failed
15 | GHMPTKQQLLYEGKAKKIYATDEPDVLWVEYKDSATAFNGEKKATIAGKGRLNNEISSLLFLKLREAGIANHFIEKLSPTEQLVRRVTIIPLEVVVRNVVAGSLAKRIGLEEGTPLEAPLVEFYYKNDDLGDPLLLEDHIFILKLASREEVAALKQAALAVNDVLRLHFAERNVRLIDFKLEFGRTADGAILLADEISPDTCRLWDAKTNEKLDKDVFRRDLGSLTDAYEVILQRLGGESACTK | not failed
16 | MKLTDRLLKIASLVSDGKKIADIGTDHGYIPVYLLKEGKVPFAVLADVNKGPLDNAHKEVIQNNLLDKVDLRLGSGIEILEIGEVEEVIIAGMGGILISELLEAKKEVAHNVEKLILQPMQAQEELRYYLLNNGYEILEEVLVREDFRIYEIIVAKYTGKNTIIEDEIYYEVGIKLLENKDSLFNDFIEKKIKTYSSIVNKLEGKNGEAIDKKRKESEVAIKKLENLIK | not failed
